The text below walks through data of publication PMC4259358, “Functional Characterization of Nuclear Localization and Export Signals in Hepatitis C Virus Proteins and Their Role in the Membranous Web” (PLoS ONE, 2014).

Holding throughout (conditions): both partners purified
Test [1] deals with T1, recombinant XPO1 (exportin 1/CRM1) (UniProt O14980 1-1071). As to the kind of experiment: ELISA; plates coated with synthetic peptide (10 µg/ml, carbonate buffer pH 9.6); increasing concentrations of recombinant NTF, 2 h, room temperature; anti-HIS detection; apparent Kd.
Test [2] has as its target T2, recombinant IPOA5 (importin α5/kap α1) (UniProt P52294 1-538). The test is described as above.
Test [3] addresses T3, recombinant IPO5 (importin β3/kap β3) (UniProt O00410-1 1-1097).
T3 sequence (looked up): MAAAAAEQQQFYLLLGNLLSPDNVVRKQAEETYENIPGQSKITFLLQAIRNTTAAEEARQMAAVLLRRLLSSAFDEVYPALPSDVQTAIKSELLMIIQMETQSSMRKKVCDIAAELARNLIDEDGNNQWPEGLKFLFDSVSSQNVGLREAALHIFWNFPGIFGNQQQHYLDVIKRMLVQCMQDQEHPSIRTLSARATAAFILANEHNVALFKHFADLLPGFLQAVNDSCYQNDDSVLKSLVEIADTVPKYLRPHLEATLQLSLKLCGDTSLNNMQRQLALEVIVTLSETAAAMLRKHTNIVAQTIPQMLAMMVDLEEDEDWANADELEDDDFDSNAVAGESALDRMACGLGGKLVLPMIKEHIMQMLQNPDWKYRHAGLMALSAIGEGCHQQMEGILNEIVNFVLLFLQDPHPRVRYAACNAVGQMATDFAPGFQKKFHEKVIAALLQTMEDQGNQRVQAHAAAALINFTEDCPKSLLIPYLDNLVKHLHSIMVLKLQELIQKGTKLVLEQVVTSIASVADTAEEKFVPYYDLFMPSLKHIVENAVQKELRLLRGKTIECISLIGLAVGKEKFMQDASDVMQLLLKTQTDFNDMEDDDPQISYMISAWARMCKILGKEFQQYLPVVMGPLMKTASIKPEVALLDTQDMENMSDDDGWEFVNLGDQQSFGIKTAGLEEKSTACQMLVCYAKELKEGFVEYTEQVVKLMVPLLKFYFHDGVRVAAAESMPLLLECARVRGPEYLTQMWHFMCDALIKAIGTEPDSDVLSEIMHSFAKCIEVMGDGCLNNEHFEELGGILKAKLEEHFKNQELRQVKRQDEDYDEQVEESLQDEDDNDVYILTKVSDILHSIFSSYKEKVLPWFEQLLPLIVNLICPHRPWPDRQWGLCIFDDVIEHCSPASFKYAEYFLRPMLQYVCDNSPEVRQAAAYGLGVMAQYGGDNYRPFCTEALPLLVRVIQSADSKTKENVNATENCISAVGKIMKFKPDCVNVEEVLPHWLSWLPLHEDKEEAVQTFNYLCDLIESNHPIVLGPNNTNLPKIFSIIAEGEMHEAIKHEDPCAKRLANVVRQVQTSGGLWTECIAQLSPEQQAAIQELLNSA
The test is described as above.

The target of test [4] is T2, recombinant IPOA5 (importin α5/kap α1). The test is described as above. The source holds these as a separate data set.
Test [5] shares this target. As to the kind of experiment: ELISA; plates coated with recombinant HCV protein (10 µg/ml, carbonate buffer pH 9.6); recombinant NTF added, 2 h, room temperature; anti-NTF antibodies; apparent Kd.
In test [6] the target is T3, recombinant IPO5 (importin β3/kap β3). The description is as above.
Test [7] concerns the target T1, recombinant XPO1 (exportin 1/CRM1). The test is described as above.

T2 sequence (P52294 whole entry): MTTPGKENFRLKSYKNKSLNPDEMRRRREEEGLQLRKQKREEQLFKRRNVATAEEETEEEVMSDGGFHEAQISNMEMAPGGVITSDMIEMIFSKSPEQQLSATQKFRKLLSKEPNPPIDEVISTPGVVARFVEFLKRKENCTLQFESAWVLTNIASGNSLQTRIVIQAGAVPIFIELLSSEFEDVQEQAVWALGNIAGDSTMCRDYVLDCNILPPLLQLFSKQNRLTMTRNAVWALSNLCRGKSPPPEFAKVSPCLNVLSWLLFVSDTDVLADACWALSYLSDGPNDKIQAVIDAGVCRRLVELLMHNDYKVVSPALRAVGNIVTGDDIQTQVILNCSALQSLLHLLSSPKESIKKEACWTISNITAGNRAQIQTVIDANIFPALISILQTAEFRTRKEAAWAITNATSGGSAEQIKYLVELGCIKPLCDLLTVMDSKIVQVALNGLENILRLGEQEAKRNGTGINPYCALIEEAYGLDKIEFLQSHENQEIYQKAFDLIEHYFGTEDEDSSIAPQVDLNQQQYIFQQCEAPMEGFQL
T1 sequence (O14980 whole entry): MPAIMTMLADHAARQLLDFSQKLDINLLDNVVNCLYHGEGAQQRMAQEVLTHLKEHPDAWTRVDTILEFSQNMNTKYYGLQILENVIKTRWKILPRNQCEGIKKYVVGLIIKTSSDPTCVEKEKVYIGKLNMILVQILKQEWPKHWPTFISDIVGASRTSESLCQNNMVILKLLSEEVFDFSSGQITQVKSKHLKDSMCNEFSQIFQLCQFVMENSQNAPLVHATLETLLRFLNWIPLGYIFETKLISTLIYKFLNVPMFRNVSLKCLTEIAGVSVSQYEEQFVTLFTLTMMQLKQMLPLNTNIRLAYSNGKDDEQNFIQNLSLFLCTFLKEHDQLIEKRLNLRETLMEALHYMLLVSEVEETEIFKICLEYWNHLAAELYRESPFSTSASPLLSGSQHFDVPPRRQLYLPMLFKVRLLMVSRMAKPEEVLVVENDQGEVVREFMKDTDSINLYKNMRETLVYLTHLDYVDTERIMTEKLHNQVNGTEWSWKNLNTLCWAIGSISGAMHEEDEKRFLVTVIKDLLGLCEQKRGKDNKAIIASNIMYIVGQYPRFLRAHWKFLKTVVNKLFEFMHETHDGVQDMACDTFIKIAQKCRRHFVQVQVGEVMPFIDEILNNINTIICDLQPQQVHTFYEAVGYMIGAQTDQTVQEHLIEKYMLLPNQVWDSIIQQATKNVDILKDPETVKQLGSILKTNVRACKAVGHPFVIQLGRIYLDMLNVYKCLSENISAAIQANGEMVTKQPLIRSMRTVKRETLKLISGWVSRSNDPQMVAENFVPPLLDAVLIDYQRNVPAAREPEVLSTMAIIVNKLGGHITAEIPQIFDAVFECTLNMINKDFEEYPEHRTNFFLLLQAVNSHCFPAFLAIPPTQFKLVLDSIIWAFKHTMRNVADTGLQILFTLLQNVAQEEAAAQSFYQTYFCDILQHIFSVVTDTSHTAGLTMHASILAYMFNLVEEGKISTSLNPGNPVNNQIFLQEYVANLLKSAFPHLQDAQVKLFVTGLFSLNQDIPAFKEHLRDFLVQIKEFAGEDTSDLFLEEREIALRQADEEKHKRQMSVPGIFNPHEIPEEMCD

B1: Core NES 1 synthetic peptide (fused to penetratin) (peptide)
peptide: KVIDTLTCGFADLMGRQIKIWFQNRRMKWKK
notes: source: synthetic peptide (GL Biochem, HPLC >85%)
On to B1, for which the Kd in test [1] came out at 66.7 ± 11.3 nM.

B2: Core NLS 3 synthetic peptide (fused to penetratin) (peptide)
peptide: PRGRRQPIPKDRRSTGKAWGKPRQIKIWFQNRRMKWKK
notes: as for B1
As to B2, the figures for the Kd in test [2] and in test [3] were 17.5 ± 0.81 nM and 40.4 ± 7.06 nM, respectively.

B3: NS2 NLS synthetic peptide (fused to penetratin) (peptide)
peptide: PIIFSPMEKKVIVWGRQIKIWFQNRRMKWKK
notes: as for B1
With B3, the Kd was around 34 nM in test [4] and 79.2 ± 3.89 nM in test [2].

B4: recombinant full-length HCV core protein (natural protein)
chain: STNPKPQRKTKRNTNRRPEDVKFPGGGQIVGGVYLLPRRGPRLGVRTTRKTSERSQPRGRRQPIPKDRRSTGKAWGKPGRPWPLYGNEGLGWAGWLLSPRGSRPSWGPTDPRHRSRNVGKVIDTLTCGFADLMGYIPVVGAPLSGAARAVAHGVRVLEDGVNYATGNLPGFPFSIFLLALLSCITVPVSA
Turning to B4, the Kd is 36.8 ± 4.83 nM in test [5], 56 ± 2.78 nM in test [6] and 23.1 ± 4.07 nM in test [7].

B5: Core NES 2 synthetic peptide (fused to penetratin) (peptide)
peptide: LPGCSFSIFLLALLSCITVPVSARQIKIWFQNRRMKWKK
notes: as for B1
As to B5, in test [1], the Kd turned out to be 95.2 ± 26.6 nM.

B6: Core NLS 1 synthetic peptide (fused to penetratin) (peptide)
peptide: PKPQRKTKRNTNRRPRQIKIWFQNRRMKWKK
notes: as for B1
As for B6, the figures for the Kd in test [2] and in test [3] were 161 ± 31.8 nM and 34.8 ± 4.54 nM, respectively.

B7: HIV-1 Rev NES synthetic peptide (fused to penetratin) (peptide)
peptide: LQLPPLERLTLRQIKIWFQNRRMKWKK
notes: as for B1
For the molecule B7, in test [1], the Kd worked out at 114 ± 71.5 nM.

B8: Core NLS 2 synthetic peptide (fused to penetratin) (peptide)
peptide: PRRGPRLGVRRQIKIWFQNRRMKWKK
notes: as for B1
In the case of B8, the Kd amounted to 24.9 ± 1.71 nM in test [2] and 78.8 ± 6.42 nM in test [3].

B9: NS2 NES synthetic peptide (fused to penetratin) (peptide)
peptide: LILLTLSPHYKLFLARLIWWLQYFITRQIKIWFQNRRMKWKK
notes: as for B1
For the molecule B9, the Kd in test [1] stood at 79.8 ± 25.6 nM.
